The text below walks through data of patent US20010006793A1, “MODULATORS OF EUKARYOTIC CASPASES” (priority 1998, published 2001).

In the experiment the target is T1, human caspase-8β (Homo sapiens, UniProt Q14790).
T1 construct: expressed in transfected cells; host or cells: Saccharomyces cerevisiae FY250, single-copy ARS/CEN vector YCpGAL1-caspase-8β-L, GAL1 promoter
Briefly: Yeast screening method: suppression of caspase-8β-induced lethality in S. cerevisiae FY250 double transformants on galactose medium. The class given is cell-based. Particulars: for identified as a caspase inhibitor (product of human brain cDNA suppressing caspase-8β-induced cell death): FY250 double transformants, GAL1-driven expression, galactose-containing medium; for Caspase Inhibitor: Table 1 Caspase Modulators, identified using the screening method of the invention. An excerpt: The invention includes a screening method of determining whether a compound is a caspase modulator. […] A difference between the viability indicator of the first cell and the viability indicator of the second cell is an indication that the compound is a caspase modulator.
As described herein, the transformant expresses the caspase when an inducer of the inducible promoter of the caspase vector is provided to the caspase transformant. When the caspase transformant expresses the caspase, cytotoxicity ensues in the caspase transformant. If an inhibitor of the caspase is provided to the caspase transformant prior to the onset of cytotoxicity, the caspase transformant may be enabled to survive expression of the caspase or the onset of cytotoxicity may be delayed.
The gene encoding p35 was cloned into a yeast-based expression vector designated YCpGAL1-U (wherein U designates a URA3 selectable marker) to yield a YCpGAL1-p35-U inhibitor vector. Yeast cells were co-transformed with the inhibitor vector, YCpGAL1-p35-U, and with the caspase vector, YCpGAL1-caspase-8β-L, to yield a double transformant. Double transformants were plated on SC-leucine-uracil medium supplemented with dextrose to repress GAL1 promoter function. Serial ten-fold dilutions of individual double transformants grown in SC-leucine-uracil medium containing dextrose were prepared and spotted onto SC-leucine-uracil medium comprising dextrose or galactose.
Individual viable colonies of double transformant are isolated, and the test vector comprising the unknown cDNA is isolated.
The screening method used in this Example was performed as follows. A yeast double transformant was prepared by transforming S. cerevisiae strain FY250 with two yeast expression vectors. The first yeast expression vector comprised cDNA encoding a self-activating form of human caspase-8β operably linked to a GAL1 promoter and a LEU2 selectable marker. This first vector was a single copy vector and was designated YCpGAL1-caspase-8β-L. A plurality of second yeast expression vectors was used, each comprising a single random human cDNA sequence operably linked to a GAL1 promoter and a URA3 selectable marker. The cDNA sequences used to generate the plurality of second yeast expression vectors were obtained from a library of cDNAs prepared from human brain cells. The second vectors were multicopy vectors.
Double transformants were propagated on plates containing SC-leucine-uracil agar comprising dextrose. Colonies of double transformants were replica plated on plates containing medium comprising galactose, whereby expression of caspase-8β and of any product encoded by the cDNA of the second vector was induced. […] The second vector was recovered from individual colonies of double transformants which were able to survive on the galactose-containing medium and used, along with the first vector, to transform fresh FY250 cells. […] The identity of individual products encoded by the cDNA of individual second vectors was established by determining the nucleotide sequence of the cDNA and comparing the sequence with databases of known human gene sequences, including Genbank, the EST Database, and the Human Genome Database.

T1 sequence (Q14790 1-464 isoform Q14790-2): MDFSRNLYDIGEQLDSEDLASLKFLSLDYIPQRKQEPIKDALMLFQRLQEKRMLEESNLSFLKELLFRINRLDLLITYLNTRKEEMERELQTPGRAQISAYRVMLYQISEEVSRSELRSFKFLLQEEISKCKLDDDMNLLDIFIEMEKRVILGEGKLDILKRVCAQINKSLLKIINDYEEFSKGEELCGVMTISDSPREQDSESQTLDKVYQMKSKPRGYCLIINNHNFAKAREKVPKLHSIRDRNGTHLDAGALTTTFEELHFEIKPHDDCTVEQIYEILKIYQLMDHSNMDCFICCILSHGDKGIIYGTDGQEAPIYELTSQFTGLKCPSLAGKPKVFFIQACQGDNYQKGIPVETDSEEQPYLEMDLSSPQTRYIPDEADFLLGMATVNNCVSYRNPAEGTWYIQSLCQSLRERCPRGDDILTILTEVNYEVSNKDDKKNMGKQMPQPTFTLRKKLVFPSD

In the case of “Human Tat Binding Protein: product encoded by human brain cDNA; also known as TBP, SUG1, and 26S proteosomal p45 subunit ATPase”, the “identified as a caspase inhibitor (product of human brain cDNA suppressing caspase-8β-induced cell death)” value is given as “caspase inhibitor” and the “Caspase Inhibitor” value is “✓”. In the same order, the values of “Human Cytochrome b: product encoded by human brain cDNA, identified as caspase inhibitor” are “caspase inhibitor” and “✓”. For “Human Synaptophysin p38: product encoded by human brain cDNA, identified as caspase inhibitor”, in that order: “caspase inhibitor” and “✓”. Take z-VAD-fmk [reference compound]: the “Caspase Inhibitor” value was “✓”. The same measure, in the same setting: for IETD/fmk [reference compound] the value was “✓”.
